Results on 1 molecule are retold here after patent US9212226B2, “Amino acid sequences directed against CXCR4 and other GPCRs and compounds comprising the same” (Ablynx N.V., priority 2008, dated 2015).

The experiment concerns the target CXCR4 (Homo sapiens, UniProt P61073). Put plainly: [125I]-238D4 competition binding on membranes from HEK293T cells transiently expressing CXCR4. As to conditions: membranes from HEK293T cells transiently expressing CXCR4; mean ± S.E.M.

Sequence of CXCR4 (P61073 whole entry): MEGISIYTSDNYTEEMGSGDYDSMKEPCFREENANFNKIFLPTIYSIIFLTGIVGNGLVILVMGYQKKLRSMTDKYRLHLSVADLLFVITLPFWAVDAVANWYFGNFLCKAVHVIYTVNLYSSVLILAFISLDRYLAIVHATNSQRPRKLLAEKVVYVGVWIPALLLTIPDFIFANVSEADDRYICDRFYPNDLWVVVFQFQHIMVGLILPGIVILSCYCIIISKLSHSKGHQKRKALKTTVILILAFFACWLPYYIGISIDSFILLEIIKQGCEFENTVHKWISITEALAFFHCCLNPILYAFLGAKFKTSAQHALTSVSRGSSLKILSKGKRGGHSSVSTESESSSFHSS

B1: 238D4: Nanobody (VHH) raised against human CXCR4, SEQ ID NO: 239 (protein)
VHH: EVQLMESGGGLVQAGGSLRLSCAASGRTFNNYAMGWFRRAPGKEREFVAAITRSGVRSGVSAIYGDSVKDRFTISRDNAKNTLYLQMNSLKPEDTAVYTCAASAIGSGALRRFEYDYSGQGTQVTVSS
modifications: Nanobody, Nanobody constructs or fragments thereof
For the molecule B1, the “Displacem. (%) of [125I]-238D4 (maximal displacement)” value is given as 103 ± 1%.
